Laboratory results published in patent US20130136748A1 (Ablynx, published 2013).
Like-named read-outs stand apart in the source and are kept apart here. Values belong to the molecule of their own block, whether it stands above or below them.

How the values were obtained:
human HER1 = biological target: T1, human HER1 (human, UniProt P00533 25-1210); experiment: FACS CHO-HER1, 5 µg/ml
T1 construct: also called EGFR; ErbB1

human HER2 = biological target: T2, human HER2 (human, UniProt P04626 23-1255); experiment: FACS CHO-HER2, 5 µg/ml
T2 construct: also called hHER2

human HER4 = human HER4 (human, UniProt Q15303 26-1308); experiment: FACS CHO-HER4, 5 µg/ml
Sequence of human HER4 (Q15303 26-1308 limits assumed): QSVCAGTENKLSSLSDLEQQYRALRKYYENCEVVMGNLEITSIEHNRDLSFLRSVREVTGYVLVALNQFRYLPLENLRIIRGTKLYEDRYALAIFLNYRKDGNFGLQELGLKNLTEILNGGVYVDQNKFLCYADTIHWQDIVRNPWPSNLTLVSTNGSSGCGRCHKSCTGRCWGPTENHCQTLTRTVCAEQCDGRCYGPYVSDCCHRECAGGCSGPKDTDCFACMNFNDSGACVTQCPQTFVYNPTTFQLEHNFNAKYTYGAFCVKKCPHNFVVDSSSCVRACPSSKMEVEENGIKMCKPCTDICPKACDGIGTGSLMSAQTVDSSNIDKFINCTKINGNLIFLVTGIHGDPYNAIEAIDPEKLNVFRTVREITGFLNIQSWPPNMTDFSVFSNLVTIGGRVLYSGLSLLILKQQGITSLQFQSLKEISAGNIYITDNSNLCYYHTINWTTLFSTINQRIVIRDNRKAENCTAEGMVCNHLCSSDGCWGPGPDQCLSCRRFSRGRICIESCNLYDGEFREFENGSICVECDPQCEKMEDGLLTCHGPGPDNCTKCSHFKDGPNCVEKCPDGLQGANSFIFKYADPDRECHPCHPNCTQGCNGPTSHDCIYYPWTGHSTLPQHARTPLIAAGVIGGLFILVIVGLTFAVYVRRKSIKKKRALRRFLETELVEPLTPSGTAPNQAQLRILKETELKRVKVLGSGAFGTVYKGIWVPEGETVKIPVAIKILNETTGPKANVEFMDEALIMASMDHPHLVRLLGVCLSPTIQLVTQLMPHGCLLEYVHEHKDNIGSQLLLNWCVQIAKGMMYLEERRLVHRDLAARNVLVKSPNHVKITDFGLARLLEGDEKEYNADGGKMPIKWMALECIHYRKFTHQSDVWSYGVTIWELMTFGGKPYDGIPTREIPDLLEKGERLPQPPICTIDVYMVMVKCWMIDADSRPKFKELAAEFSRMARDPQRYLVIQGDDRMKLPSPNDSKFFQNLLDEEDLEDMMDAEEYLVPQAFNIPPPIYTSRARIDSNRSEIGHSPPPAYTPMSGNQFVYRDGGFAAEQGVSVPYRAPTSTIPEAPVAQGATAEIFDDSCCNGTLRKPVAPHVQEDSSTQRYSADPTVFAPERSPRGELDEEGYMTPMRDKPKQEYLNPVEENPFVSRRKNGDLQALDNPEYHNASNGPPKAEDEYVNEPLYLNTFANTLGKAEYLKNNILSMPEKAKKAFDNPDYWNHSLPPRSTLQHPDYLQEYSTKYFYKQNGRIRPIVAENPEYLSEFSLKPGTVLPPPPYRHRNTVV

hHER3 full length [1] = biological target: T3, hHER3 full length (human, UniProt P21860 20-1342); experiment: cell-based or functional assay
[2] = biological target: T4, hHER3 ECD (human HER3 extracellular domain) (human, UniProt P21860 20-643); experiment: SPR off rate on HER3-ECD
T4 construct: also called recombinant HER3-ECD

[3] = biological target: T5, human HER3-Fc (R&D Systems, 348-RB) (human, UniProt P21860 20-643); experiment: HRG competition alphascreen
T5 construct: Bought; also called hHER3-Fc; Fc-HER3; Fc part of the bought chimera not given, not described

[4] = biological target: T5, human HER3-Fc (R&D Systems, 348-RB); experiment: HRG competition alphascreen; remark: listed apart in the source
hHER3 full length [5] = biological target: T3, hHER3 full length; experiment: cell-based or functional assay; remark: listed apart in the source
[6] = biological target: T5, human HER3-Fc (R&D Systems, 348-RB); experiment: HRG competition alphascreen; remark: listed apart in the source
[7] = biological target: T5, human HER3-Fc (R&D Systems, 348-RB); experiment: HRG competition alphascreen; remark: listed apart in the source
hHER3 full length [8] = biological target: T3, hHER3 full length; experiment: cell-based or functional assay; remark: listed apart in the source
[9] = biological target: T4, hHER3 ECD (human HER3 extracellular …); experiment: SPR off rate on HER3-ECD; remark: listed apart in the source
[10] = biological target: T5, human HER3-Fc (R&D Systems, 348-RB); experiment: 34C07 competition alphascreen

IC50 pHER3 blocking, HRG stimulated MCF7 (hHER3 full length [1]): 4.28e-09 M
koff [2]: 0.00019 s⁻¹
IC50 [3]: 0.75 nM
B2: HER3MS00120 (VHH)
VHH: DVQLVESGGGLVQPGGSLRLSCAASGSIGGLNAMAWYRQAPGKERELVAGIFGVGSTRYADSVKGRFTISRDNSKNTVYLQMNSLRAEDTAVYYCRMSSVTRGSSDYWGQGTLVTVSS
notes: 17B05 second round, E1D, S84A; also called HER3MS0120

IC50 pHER3 blocking, HRG stimulated MCF7 (hHER3 full length [1]): 3.53e-09 M
koff [2]: 0.00018 s⁻¹
IC50 [3]: 0.55 nM
B3: HER3MS00121 (VHH)
VHH: DVQLVESGGGLVQPGGSLRLSCAASGSIGGLNAMAWYRQAPGKERELVAGIFGVGSTRYADSVKGRFTISRDNSKNTVYLQMNSLRPEDTAVYYCRMSSVTRGSSDYWGQGTLVTVSS
notes: 17B05 second round, E1D, S84P (final variant for N-terminal use); also called HER3MS0121

IC50 pHER3 blocking, MCF7 (hHER3 full length [8]): 4.05e-08 M
koff [9]: 0.00046 s⁻¹
IC50 [10]: 6.7 nM
B10: HER3MS00128 (VHH)
VHH: DVQLVESGGGLVQPGGSLRLSCAASGSIFRINAMAWYRQAPGKQRELVAEITAGGSTNYADSVKGRFTISRDNSWNTLYLQMNSLRAEDTAVYYCNLDHYTTWDRRSAYWGQGTLVTVSS

IC50 pHER3 blocking, MCF7 (hHER3 full length [8]): 3.05e-08 M
koff [9]: 0.00045 s⁻¹
IC50 [10]: 7.1 nM
B11: HER3MS00124 (VHH)
VHH: EVQLVESGGGLVQPGGSLRLSCAASGSIFRINAMAWYRQAPGKQRELVAEITAGGSTNYADSVKGRFTISRDNSWNTLYLQMNSLRAEDTAVYYCNLDHYTTWDRRSAYWGQGTLVTVSS

IC50 pHER3 blocking, MCF7 (hHER3 full length [8]): 3.88e-08 M
koff [9]: 0.00046 s⁻¹
IC50 [10]: 8.5 nM
B12: HER3MS00127 (VHH)
VHH: DVQLVESGGGLVQPGGSLRLSCAASGSIFRINAMAWYRQAPGKQRELVAEITAGGSTNYADSVKGRFTISRDNSWNTLYLQMNSLRPEDTAVYYCNLDHYTTWDRRSAYWGQGTLVTVSS

Further lines, the molecule ahead of its results:

Molecule: Anti-HER4 pAb (R&D Systems AF1131) (antibody)
MCF (human HER1): 584
MCF (human HER2): 932
MCF (human HER4): 17000

Molecule: Anti-HER1 pAb (R&D Systems AF231) (antibody)
MCF (human HER1): 28200
MCF (human HER2): 888
MCF (human HER4): 418

Molecule: Anti-HER2 pAb (R&D Systems AF1129) (antibody)
MCF (human HER1): 323
MCF (human HER2): 41000
MCF (human HER4): 578

B1: HER3MS00118 (VHH)
VHH: EVQLVESGGGLVQPGGSLRLSCAASGSIGGLNAMAWYRQAPGKERELVAGIFGVGSTRYADSVKGRFTISRDNSKNTVYLQMNSLRAEDTAVYYCRMSSVTRGSSDYWGQGTLVTVSS
notes: 17B05 second round, S84A; also called HER3MS0118
IC50 pHER3 blocking, HRG stimulated MCF7 (hHER3 full length [1]): 2.69e-09 M
koff [2]: 0.00018 s⁻¹
IC50 [3]: 0.6 nM

B4: HER3MS00119 (VHH)
VHH: EVQLVESGGGLVQPGGSLRLSCAASGSIGGLNAMAWYRQAPGKERELVAGIFGVGSTRYADSVKGRFTISRDNSKNTVYLQMNSLRPEDTAVYYCRMSSVTRGSSDYWGQGTLVTVSS
notes: 17B05 second round, S84P (final variant); also called HER3MS0119
IC50 pHER3 blocking, HRG stimulated MCF7 (hHER3 full length [1]): 1.7e-09 M
koff [2]: 0.00018 s⁻¹
IC50 [3]: 0.79 nM

B5: HER3MS00046 (VHH)
VHH: EVQLVESGGGLVQPGGSLRLSCAASGRTYYLNAMGWFRQGPGKDREFVAAIDWSDGNKDYADSVKGRFTISRDNSKNTVYLQMNSLRPEDTAVYYCAADTPPWGPMIYIESYDSWGQGTLVTVSS
notes: 21F06 + A14P, A74S, K83R, Q108L; also called HER3MS0046; 21F06 basic variant
IC50 [4]: 0.28 nM

B6: HER3MS00048 (VHH)
VHH: EVQLVESGGGLVQPGGSLRLSCAASGRTYYLNAMGWFRQGPGKEREFVAAIDWSDGNKDYADSVKGRFTISRDNSKNTVYLQMNSLRPEDTAVYYCAADTPPWGPMIYIESYDSWGQGTLVTVSS
notes: 21F06 basic + D44E; also called HER3MS0048
IC50 [4]: 0.27 nM

B7: HER3MS00047 (VHH)
VHH: EVQLVESGGGLVQPGGSLRLSCAASGRTYYLNAMGWFRQAPGKDREFVAAIDWSDGNKDYADSVKGRFTISRDNSKNTVYLQMNSLRPEDTAVYYCAADTPPWGPMIYIESYDSWGQGTLVTVSS
notes: 21F06 basic + G40A; also called HER3MS0047
IC50 [4]: 0.21 nM

B8: HER3MS00042 (VHH)
VHH: EVQLVESGGGLVQPGGSLRLSCAASGFTFSSYPMSWVRQAPGKGPAWVSTVSPGGITTSYADSVKGRFTISRDNSKNTLYLQMNSLRPEDTAVYYCLRDLNNRGQGTLVTVSS
notes: 04C07 + A14P, A74S, K83R, Q108L; also called HER3MS0042; 04C07 basic variant
IC50 pHER3, HRG1-β1 stimulated MCF7 (hHER3 full length [5]): 6.81e-09 M
IC50 [6]: 0.31 nM
IC50 [7]: 0.31 nM

B9: HER3MS00123 (VHH)
VHH: EVQLVESGGGLVQPGGSLRLSCAASGSIFRINAMAWYRQAPGKQRELVAEITAGGSTNYADSVKGRFTISRDNSWNTLYLQMNSLRPEDTAVYYCNLDHYTTWDRRSAYWGQGTLVTVSS
IC50 pHER3 blocking, MCF7 (hHER3 full length [8]): 3.09e-08 M
koff [9]: 0.00046 s⁻¹
IC50 [10]: 7.6 nM
